Experiment: yeast display, Sf9 membrane polyspecificity reagent, FACS + sequencing; frameworks hold sequencing errors
Procedure, shortened: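 Nanobodies from a synthetic yeast display library (Saccharomyces cerevisiae BJ5465), induced 36–48 hours with galactose, were stained 1 hour at 4 °C with 10% biotinylated, detergent-solubilized Sf9 membrane reagent, enriched on streptavidin microbeads, then FACS-sorted. Anti-HA (expression) and streptavidin (reagent binding) fluorescence set low and high (top ~1%) gates. Polyreactivity labels come from the gate of origin. Genes were colony-PCR amplified, MiSeq 2 × 250 sequenced and filtered by CDR length.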

Row | Sequence | polyreactivity (PSR sort gate)
1 | QVQLVESGGGLVQAGGSLRLSCAASGSIFVSYAMGWYRQAPGKERELVAAITSIGTRTNYADSVKGRFTISRDNAKNTVYLPMNSLKPEDTAVYYCNAPRFWSRHGLRDYWGQGTQVTVSS | high polyreactivity
2 | QVQLVESGGGLVQAGGSLRLSCAASGFTFAPNAMGWYRPAPGKEWELVAAISSASSTYYADSVKGRFTISRDNAKYNVYLQMKSLLPEDTAVYYCNAYYWFGPGRDYWGQGTQVTVSS | high polyreactivity
3 | QVQLVESGGGLVQAGGSLRLTCAASGSTFTGYAMGWSIQAPGKERELVAGITGSGGSTYYADSVKGRFTISRDNAKNTVYLQMNSLKPEDTAVYYCNAVHWGGTYWGLDYWGQGTQVTVSS | low polyreactivity
4 | QVQLVESGGGLVQAGGSLRLSCAASGRIFGLYAMGWYRQAPGKERELVAAITSSTGSTYYADSVKGRFTISRDNAKNTVYLQMNSLKPEDTAVYYCAARRYGRNWHYDYWGQGTQVTVSS | high polyreactivity
5 | QVQLVESGGGLVQAGGSLRLSCAASGSIFVYNDKGWYRQAPGKERELVADISSGGTTDYADSVKGRFTISRDNAKNTVYLQMNSLKPEDTAVYYCAAESYIEYYLKYDYWGQGTQVTVSS | low polyreactivity
6 | QVQLVESGGGLVQAGGSLRLSCAASGLIFRRYAMGWYRTAPGKERELVAAISSSGSTYYADSVKGRFTISRDNAKNTVYLQMNSLKPEDTAVYYCNKVTGRNADRYGYWGQGTQVTVSS | high polyreactivity
7 | QVQLVESGGGLVQAGGSLRLSCAASGFTLYPYAMGRYRKAPGKERELVAAISSSSGSTYYADSVKGRFTISRDNAKNTVYVQMNSLKPDDTAVYYCARDSGYYWYYRYGYWGQGTQVTVSS | high polyreactivity
8 | QVQLVESGGGLVQAGGSLRLSCAASGRIIAYYAMGWYRQAPGKERELVAAISRRGGSTYYADSVKGRFTISRDNAKNTVYLQMNSLKPEDTAVYYCDTLTLESFSALYYWGQGTQVTVSS | low polyreactivity
9 | QVQLVESGGGLVQAGGSLRLSCAASGSIFRYYAMGWYRQAPGKERELVADITSSGGSTYYADSVKGRFTISRDNAKNTVYLQMNSLKPEDTAVYYCASLYWFYVYPFTEYDYWGQGTQVTVSS | low polyreactivity
10 | QVQLVESGGGLVQAGGSLRLSCAASGRIFYQYAMGWYRQAPGKERELVAAITRGGNTYYADSVKGRFTISRDNAKNTVYLQMNSLKPEDTAVYYCNARWHTTGYRYDYWGQGTQVTVSS | high polyreactivity
11 | QVQLVESGGGLVQAGGSLRLSCAASGRTFDYNAMGWYRQAPGKERELVAAISGSGTRTFYADSVKGRFTISRDNAKNTVYLQMNSLKPEDTAVYYCAASHGWSKSIFYYWGQGTQVTVSS | high polyreactivity
12 | QVQLVESGGGLVQAGGSLRLSCAASGSTFYRYAMGWYRPAPGKERELVAAITSAGSTNYADSVKGRFTISRDNAKNTVYLQMNSLKPEDTAVYYCAKDLTRWGYNEYDYWGQGSQVTVSS | low polyreactivity
13 | QVQLVESGGGLVQAGGSLRLICAASGSTLDKYAMGWDRPAPGKERELVAAISSSGGSTYYADSVKGRFTISRDNAKNTVYLQMNSLKPEDTAVYYCAARFFRGRYLDDYWGQGTQVTVSS | high polyreactivity
14 | QVQLVESGGGLVQAGGSLRLSCAASGSIFYKYTMGWYRPAPGKERELVAAITKSGGSTYYADSVKGRFTISRDNAKNTVYLQMNSLKPEDTAVYYCAARRYRYYSRGSWGQGTQVTVSS | high polyreactivity
15 | QVQLVESGGGLVQAGGSLRLSCAASGRIFGPYTMGWYRQAPGKERELVAAISWSGGSTYYADSVKGRFTISRDNAKNTVYLQMNSLKPEDTAVYYCNADHPFPQYEGGSWGQGTQVTVSS | low polyreactivity
16 | QVQLVESGGGLVQAGGSLRLSCAASGLIFSYNAMGWYRQAPGKVRELVATSRRVGSTHYADSVKGRFTISRDNAKNTVYLPMNSLKPEDTAVYDCAARSLRYGRGMYYWGQGTQGTVSS | high polyreactivity
17 | QVQLVESGGGLVQAGGSLRLSCAASVSPFWLNAMGWYRPAPGKEREFVAAITVGGGSTYYADSVKGRFTISRDNAKNTDYLQMNSLKPEDTAVYYCAALYRFWYPGNSYDYWGQGTQVTVSS | high polyreactivity

Reference: the nanobody polyreactivity screen of Harvey et al. (2022)
